Experimental data taken from the RNAGym collection of RNA variant scans (doi:10.1073/pnas.2313332121).

B1: TPR t1 (parent)
chain: GACCAAUCUGCCCUCAGAGCUCGAGAACAUCUUCGGAUGCAGAGGAGGCAGGCUUCGGUGGCGCGAUAGCGCCAACGUCCUCAACCUCCAAUGCAUCCCACCACAUGAUGAUGCCUGAAGAGCCUUGGUUUUUUG

Variants of: B1
Assay: polymerase ribozyme fitness, log enrichment relative to wild type (log ratio); higher = more active; in vitro selection for triplet polymerase activity
In short: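 Mutant libraries were PCR-built and transcribed for each subunit of a heterodimeric triplet polymerase ribozyme and selected for one round in triplicate at −7 °C, frozen, before gel excision of extended constructs and streptavidin-bead capture. Input and output libraries were Illumina-sequenced, keeping genotypes with ≥10 input reads and ≥1 read per output. Fitness is a logarithmic ratio of genotype to wild-type enrichment, in base 2, using inverse-variance-weighted replicate averages.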

Row | Variant | polymerase ribozyme fitness (log ratio)
1 | C8A G42A G60U A121C | -0.202
2 | C15U C56G | -2.76
3 | C22G C72G U81A | -4.32
4 | G36C A50U C62U C101G | -4.84
5 | U9A C70U A74G C104A C123A | -3.22
6 | A74U A105C | -3.15
7 | G17A G127C | -4.54
8 | G48C C72U U78C C86A C101A C114U C124U | -4.1
9 | C12G C34A C62U | -2.32
10 | C15U G71A | -2.11
11 | C4G C12G G36C G44C C97G | -2.86
12 | G44A U109G | -5.09
13 | A27U C76U G77C | -3.99
14 | U9C C13A A27U G44C G48U C62U U112A | -2.71
15 | U33A G52U G61C C115A | -4.91
16 | C56U C72U G120C G127A U134C | -1.5
17 | U9A C12A C124U | 2.01
18 | C3U C8A U54A G69C | -1.46
19 | A26G A46G G63A | -3.44
20 | G93U G120U | -1.4
21 | U7G C31G U38A G69A C80U C101G G120A | -7.18
22 | A41C G61U | -0.204
23 | G58U A111C | -0.00673
24 | C34G G35U G60C G127C | -7.24

Row | Variant | polymerase ribozyme fitness (log ratio)
25 | C70U | -0.414
26 | G17U U81A | -3.22
27 | C70U C88A | -0.884
28 | A18U C20G A50U C72G G113A | -4.8
29 | G35A U55C C115U | -5.27
30 | C49A G71A C82A G120U | -2.99
31 | A27U G36A A41C C56A G61A G120A | -5.6
32 | G69U G93U G110A | -0.494
33 | G36A G45C C49A C73A | -0.979
34 | C62G C102U G120U | -5.14
35 | G52A C79A | -0.667
36 | C53U A95C C115A | 0.802
37 | A24G C85G | -2.32
38 | C40U C73U G93U U130G | -2.36
39 | C11A U38G C56U A90U | -3.35
40 | U21C G42A G52U C124A U125A | -1.88
41 | U14A A66U C98U | -4.97
42 | C13A A46C C64U U112C | -1.16
43 | U9G A100U G128A | -1.71
44 | G69U A95G G135U | -0.343
45 | A121G U131A | 2.42
46 | C4U C13U G42U U55C G71A | -2.58
47 | G93C C104U A108G | -2.77
48 | C11G A95C C114G G120A | -6.61

Row | Variant | polymerase ribozyme fitness (log ratio)
49 | G61C C101G | -3.98
50 | G10A C72U | -0.532
51 | U9G U54A G69C U129C | -2.97
52 | C49A G110C U112A | -5.99
53 | G39A G42U C49A G52A | -4.68
54 | C13G C62G | -3.43
55 | C22G U38A U96C U112A A121U | -3.78
56 | C11U A84U C89U | -1.61
57 | A46U C123U | 0.165
58 | U78G C82G | -0.36
59 | C13G G63U C72U | -2.72
60 | C40U C72U U116G G120C G128U | -4.53
61 | C13A U21G G63A | -4.73
62 | C56U C101G A118C C124G | -2.41
63 | U33A G42A G52U G61A A121U | -5.46
64 | C104U G120U G135U | -0.513
65 | C89A G127C U133G | -4.42
66 | C11G C70G U116A U129C | -6.8
67 | A41U C114G | -2.94
68 | G42U G110A | -2.74
69 | C34U G61C | -4.48
70 | A6U G48C U54A C89A C97U | -3.1
71 | C4G A50U C72G | -3.42
72 | A2U C49U G113C | -5.26

Row | Variant | polymerase ribozyme fitness (log ratio)
73 | G45A C79U | -1.01
74 | C99U G110A | -5.27
75 | G63A C64A U81G C115G | -6.59
76 | U7A U106G G128C | -4.39
77 | A18G U129A | -4.53
78 | C3G C53G C86G C94U U106G G120A | -5.63
79 | C62A C86A C98U | -3.12
80 | C13G G39U | -2.13
81 | A111G U112A | -2.9
82 | C11U G47U C62U G71U C82A A95U | -2.79
83 | A43U C88U A95C | -2.51
84 | U32C C56U G60A C88A | -5.77
85 | A43G C53G G69C | -2.9
86 | G10U U30C | -2.43
87 | C40G C53U C94G G107U C124U U125G | -7.6
88 | C3G G48C | -2.83
89 | U59A G71A C101U C124A | 1.02
90 | U9C C104U G122A | 0.29
91 | U55G C62G | -0.626
92 | C12G G36C C114A G120A | -2.67
93 | G47U G58C G63U | -1.75
94 | A50C C123G | 0.334
95 | C13U G52C G60A A95G C98U U126G | -4.8
96 | G69U U112G | 0.676

Row | Variant | polymerase ribozyme fitness (log ratio)
97 | C15U G61U A91G A121C U126A | -4.05
98 | C72G U81C C104G C115U U133A | -6.64
99 | U38G C56G G57C G77U | -1.18
100 | C11A C40A A74G G135U | -2.09
101 | A5U A6C G57U C123U | 0.75
102 | A6G C22U G44C C88U | -6.05
103 | C11U G117A | -2.36
104 | C34A C49G C62G A121G | -5.41
105 | C3U C86U C104A | -1.75
106 | U7G C8U G61A A90U A121C | 0.312
107 | G42U A50C C62U A84G C114G | -4.07
108 | C97U C101A G122C C123A U125A | -1.66
109 | U54C U96A | -0.835
110 | C101A G110U | -3.04
111 | C15A C49A U55G A74C U81G A90G G117U | -3.52
112 | C40G G57U G63C A91C | -3.66
113 | A2G A50U G57C G60C C85G G113A | -2.81
114 | C11G A37G C40G C72A C101U C123A | 0.0924
115 | C12U G35A | -3.06
116 | A41U C72U A83U U87G U92A | -0.865
117 | C86U G120C | 1.51
118 | U7G C12A C15A C49A U112A | -0.0165
119 | C12U C97G C104U | -2.92
120 | C8U C11G G48C C56U C64U C89U G117U | -5.48

Row | Variant | polymerase ribozyme fitness (log ratio)
121 | C49U U106A | -0.703
122 | A41U G52C U87A | -1.57
123 | A46U G63U A83U G110U | -6.56
124 | A46C G69A C72A | -4.32
125 | C4G C123A | -0.461
126 | C79U G128C | -2.48
127 | C11G C70A G127C | -2.16
128 | A41U C49U U109A U130G | -6.38
129 | G77A C115U G128A | -3.21
130 | A26U C49U U54C G93C | -5.34
131 | C53A U78G C80U C123G | 0.434
132 | G35A C53G C70A C104U G117U C124G U126G | -6.92
133 | G69A C88U | -2.7
134 | A46U U78C C124A | 0.325
135 | G36A G117C | -4.58
136 | A5U C12A U21G C49A C72G | -2.35
137 | G48A U131A | -0.843
138 | A50U U92G | -3.4
139 | U7A C13U G36A G69U | -0.408
140 | U54C A75G C79A | -0.763
141 | C11G C79G C82A | -1.78
142 | C70G A111G | -3.21
143 | G61U C101G U106A | 0.513
144 | C3U C34G G63U | -6.26

Row | Variant | polymerase ribozyme fitness (log ratio)
145 | A2U G110C | -6.03
146 | G36C C56U C89G G117U | -7.02
147 | C86A A103U | -4.95
148 | C34U U112G | -3.89
149 | C20U C40U G61U U96G C115G U134A | -3.07
150 | G44A C124U | 0.684
151 | A24G C86U | -2.07
152 | G45U G57C A118U | -0.526
153 | C11G G19A C53U C62U A111G | -1
154 | G39A A43G G127U | -2.87
155 | U38G A84U | -1.9
156 | U9G G39A C86U G110U | -2.18
157 | C11A U30C U81A C104G A111U A119G U132C | -6.53
158 | C13G G127U | -2.53
159 | A24G A29G C56A U87G G110A U133A | -3.1
160 | C56U A90G C97U | -0.119
161 | C8U G48A G57C G60U C82A G127A | -1.38
162 | A6U C124U U133G | 0.942
163 | G39A A43G C73G U129G | -5.71
164 | C12A C124G | 1.95
165 | G61C A103C U130G | -6.98
166 | C12U C20G G63U U106C | -6.59
167 | C40A A43U G63U C89U C102U U106C C123A | -7.19
